Results reported in patent US20250177548A1, “FUSOGENIC PEPTIDE COMPOSITIONS AND METHODS OF CARGO DELIVERY” (CLEMSON UNIVERSITY, priority 2022, published 2025).
“Also recorded” adds a separate entry of the source. Non-standard residues stand in square brackets, D forms with d. No end group written: not given here. pG = not defined here

Key:
[1] = dynamic light scattering, size and zeta potential of peptide/siRNA complexes; type: physicochemical; settings: LHRH-DIV3W peptide/siRNA complexes
Protocol: Dynamic Light Scattering and Transmission Electron Microscopy. DIV3 (X)-siNT complexes were prepared at 2 mg/mL in RNase-free water. Hydrodynamic size and surface charge of the peptide/siRNA complexes were determined using a Nano ZS Zetasizer (Malvern Pananalytical, Malvern, UK). All data were recorded using Malvern's Zetasizer software.
To determine nanoparticle size and zeta potential, peptides resuspended in RNase-free water (10 μM) were thawed and kept on ice prior to complexation with 10 μM of siNT in RNase-free water and incubated for 20 minutes at room temperature to form DIV3W-siNT and LHRH-DIV3W-siNT complexes. Peptide complexes were prepared at 2 mg/mL in RNase-free water. Hydrodynamic size and surface charge analysis was conducted using a Malvern Nano ZS Zetasizer (Malvern Panalytical, Malvern, UK). All data was analyzed using Malvern's Zetasizer software.

LHRH receptor = target: T1, LHRH receptor (Homo sapiens, UniProt P30968); test: competitive binding assay with LHRH receptor antibody; type: cell-based; settings: OVCAR3 and CAOV3 cells, siNT-Cy5.5 complexes, 4 hours
T1 construct: endogenous in cells; host or cells: OVCAR3, CAOV3
T1 sequence (P30968 1-328): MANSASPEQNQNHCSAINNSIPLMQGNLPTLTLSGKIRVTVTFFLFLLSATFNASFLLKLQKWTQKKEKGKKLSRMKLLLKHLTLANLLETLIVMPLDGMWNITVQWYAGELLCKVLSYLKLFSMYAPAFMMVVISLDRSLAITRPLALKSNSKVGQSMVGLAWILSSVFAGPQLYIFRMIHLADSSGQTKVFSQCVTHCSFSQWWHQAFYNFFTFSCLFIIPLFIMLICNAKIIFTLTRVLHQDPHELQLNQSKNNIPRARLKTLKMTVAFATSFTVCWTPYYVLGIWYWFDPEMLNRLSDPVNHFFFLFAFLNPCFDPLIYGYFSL
Protocol: To analyze the specificity of the LHRH-DIV3W tandem peptide targeting LHRH receptor, a competitive binding assay was performed by incubating OVCAR3 and CAOV3 cells with GnRHR primary antibody (1:100) in 1× PBS overnight at 4° C. after being blocked with a 1% bovine serum albumin solution for 30 minutes at room temperature. LHRH-DIV3W-siNT-Cy5.5 complexes were delivered after the overnight primary antibody incubation and incubated again for 4 hours. Secondary SuperSignal Alexa Fluor 488 antibodies were delivered dropwise to cells following Invitrogen SuperSignal protocols and left to incubate at room temperature for 30 minutes and subsequently stained with SuperSignal NucBlue Hoescht 33342 for an additional 30 minutes at room temperature. Cells were imaged at 20× and 40× using an Evos FL microscope (Thermo Fisher).

RNase A = test: gel assay of siRNA protection from RNase A degradation; type: in vitro ADME; settings: 1 hour, several N:P ratios
Protocol: Gel Shift Assays. DIVA3, DIV3H, and DIV3W (all three denoted as DIV3 (X)) peptides suspended in RNase-free water (10 μM), were thawed, and kept on ice prior to complexation with 10 μM of negative control siGENOME non-targeting siRNA #5 (siNT, GE Healthcare Dharmacon, Lafayette, CO) in RNase-free water and incubated for 20 minutes at room temperature to allow the formation of DIV3 (X)-siNT complexes. Various molar ratios of peptides were complexed with siNT at increasing N:P molar ratios to determine the minimum molar ratio necessary to completely complex free siRNAs using an electrophoretic mobility shift assay. To determine the ability of each peptide variant to protect siRNAs from degradation, DIV3 (X)-siNT complexes or siNT alone was left untreated or incubated with either 50% v/v FBS or 5 μg/mL RNase A at 37° C. for one hour. Next, complexes were dissociated using 6% sodium dodecyl sulfate (SDS). Samples were added to a 2% agarose gel and run at 100 V. Gels were stained with ethidium bromide, destained with Milli-Q water, and imaged using a ChemiDoc XRS imager (Bio-Rad, Hercules, CA).
Characterization of Nanoparticle Size and Stability. To determine the minimum molar ratio necessary to completely complex free siRNAs, increasing N:P molar ratios of LHRH, DIV3W, and LHRH-DIV3W peptide were complexed with siRNAs and electrophoresed using a electrophoretic mobility shift assay. Molar ratios, shown as N:P, are representations of the molar amine peptide content in relation to 1 mole of phosphate group siRNA content. To determine the ability of the peptides to protect siRNAs from serum- or RNase-mediated degradation, LHRH and LHRH-DIV3W complexes were formed in RNase-free water with siNT at increasing N:P molar ratios and incubated at 37° C., 5% CO2, 50% v/v FBS, 5 μg/mL RNase A, or 50% v/v RNase free water for 1 hour. Peptide/siRNA complexes were dissociated using 6% sodium dodecyl sulfate (SDS) prior to electrophoresis in a 2% agarose gel run at 100 V. Gels were stained with ethidium bromide, washed with Milli-Q water, and imaged with a BioRad ChemiDoc XRS imager (BioRad, Hercules, CA).
Peptides VA-LD and GF-LD, comprising the cleavable linker VA or GLFG, respectively, between the LHRH target sequence and the DIV3W peptide, and non targeting siRNA were electrostatically complexed at increasing N:P ratios then subjected to agarose gel electrophoresis to determine optimal siRNA binding for each peptide. […] Peptide-siRNA nanocomplexes at increasing N:P ratios for peptides for VA-LD (FIG. 30A) and GF-LD (FIG. 30C) were incubated in either Rnase A enzyme or in 50% fetal bovine serum (FBS) for 1 h, dissociated using SDS then subjected to gel electrophoresis to visualize siRNA bands. Gels showing increasing N:P ratios of peptide:siRNA for VA-LD (FIG. 30B) and GF-LD (FIG. 30D) from 20:1 to 80:1 N:P; white bands are indicative of intact siRNA

Protocol for CAOV3 cells: Cells were seeded at 10,000 cells per well with complete culture media in a 96-well plate and incubated overnight to allow the cells to attach. DIV3 (X) peptides were complexed with siNT at 40:1 to 80:1 N:P molar ratios. DIV3 (X)-siNT complexes were incubated with OVCAR3 or CAOV3 cells at a final concentration of 100 nM siRNA and 10% FBS for 24 hours. Media was then aspirated, cells were washed with 1× phosphate-buffered saline (PBS), and fresh media with 10% FBS was added to each well and incubated another 24 hours.
Viability was measured using an MTS Assay performed with CellTiter 96 AQueous One Solution Cell Proliferation Assay (Promega, Madison, WI). Assay reagent was added according to the manufacturer's protocol, and cells were incubated for 4 hours. Absorbance was read using a BioTek Synergy LX (BioTek, Winooksi, VT) plate reader at 490 nm. […]
OVCAR3 or CAOV3 cells were seeded at 10,000 cells per well with complete culture media in a transparent 96-well plate and incubated overnight to allow the cells to attach. […] After 24 hours of incubation the media was exchanged and after another 24-hour incubation at 37° C. in 5% CO2, viability was measured using an MTS Assay performed with the CellTiter 96 AQueous One Solution Assay (Promega, Madison, WI). […] Absorbance was read using a BioTek Synergy LX (BioTek, Winooksi, VT) plate reader at 490 nm.

Substance: pGHWSY-(d) LLRPGGGGGWEADIVADIVWDIVADIVAGGG-(d) RRRRRRRRR ([pG]HWSY[dL]LRPGGGGGWEADIVADIVWDIVADIVAGGG[dR][dR][dR][dR][dR][dR][dR][dR][dR]; reading uncertain) [LHRH-DIV3W]
- cytotoxicity of peptide alone (CAOV3 cells): did not cause cytotoxic effects
- nanoparticle size (DLS) [1]: 154.2±15.9 nm
- polydispersity index [1]: 0.18
- zeta potential (positive charge) [1]: 33.37±2.00 mV
- siRNA internalization after preincubation with LHRH receptor antibody (LHRH receptor): siRNA internalization was drastically decreased; also recorded: minimal siRNA internalization
- intact siRNA after incubation with RNase A (RNase A): Higher N:P ratios were required for full protection
